From IntAct's records for PubMed 24003221

B1: Tyrosine-protein phosphatase non-receptor type 1 (Homo sapiens), P18031 (parent)
chain: MEMEKEFEQIDKSGSWAAIYQDIRHEASDFPCRVAKLPKNKNRNRYRDVSPFDHSRIKLHQEDNDYINASLIKMEEAQRSYILTQGPLPNTCGHFWEMVWEQKSRGVVMLNRVMEKGSLKCAQYWPQKEEKEMIFEDTNLKLTLISEDIKSYYTVRQLELENLTTQETREILHFHYTTWPDFGVPESPASFLNFLFKVRESGSLSPEHGPVVVHCSAGIGRSGTFCLADTCLLLMDKRKDPSSVDIKKVLLEMRKFRMGLIQTADQLRFSYLAVIEGAKFIMGDSSVQDQWKELSHEDLEPPPEHIPPPPRPPKRILEPHNGKCREFFPNHQWVKEETQEDKDCPIKEEKGSPLNAAPYGIESMSQDTEVRSRVVGGSLRGAQAASPAKGEPSLPEKDEDHALSYWKPFLVNMCVATVLTAGAYLCYRFLFNSNT

Variants of: B1
Details: with k2c8_human KRT8, P05787
Sequence of k2c8_human KRT8, P05787 (P05787 whole entry): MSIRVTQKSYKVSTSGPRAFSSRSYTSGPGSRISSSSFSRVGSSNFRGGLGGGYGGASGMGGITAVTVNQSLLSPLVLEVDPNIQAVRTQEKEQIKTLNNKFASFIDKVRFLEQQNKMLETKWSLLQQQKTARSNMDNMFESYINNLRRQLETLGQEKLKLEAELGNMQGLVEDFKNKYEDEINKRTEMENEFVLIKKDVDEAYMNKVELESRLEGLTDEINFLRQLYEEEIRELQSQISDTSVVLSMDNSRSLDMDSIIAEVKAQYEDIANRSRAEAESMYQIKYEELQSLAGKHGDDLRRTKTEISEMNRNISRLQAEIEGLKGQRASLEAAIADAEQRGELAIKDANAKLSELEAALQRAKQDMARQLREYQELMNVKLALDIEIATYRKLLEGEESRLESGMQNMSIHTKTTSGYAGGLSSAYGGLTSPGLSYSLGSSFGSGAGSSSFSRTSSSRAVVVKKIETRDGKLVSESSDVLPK

effect of a mutation on the interaction | Variant
increasing interaction strength | D181A
